Target: T1, CD5L (AIM) (Homo sapiens, UniProt O43866 20-347)
T1 sequence: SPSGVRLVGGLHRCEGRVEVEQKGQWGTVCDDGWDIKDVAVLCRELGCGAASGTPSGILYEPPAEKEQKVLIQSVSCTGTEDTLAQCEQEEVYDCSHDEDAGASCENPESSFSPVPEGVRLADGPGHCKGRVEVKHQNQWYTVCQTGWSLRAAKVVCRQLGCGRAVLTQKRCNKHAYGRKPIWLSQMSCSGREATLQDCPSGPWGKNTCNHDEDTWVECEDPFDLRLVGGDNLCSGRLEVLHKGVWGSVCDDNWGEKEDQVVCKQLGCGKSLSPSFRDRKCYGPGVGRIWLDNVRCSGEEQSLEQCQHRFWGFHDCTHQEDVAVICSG
Test: MST; Cy5-S76.T 2 nM, CD5L titrated; MST: S11/S23 in binding buffer pH 7.4, 1 mM MgCl2, 0.1% Tween 20, 1 nM labelled protein; S76 in TBS; S76.T (Cy5, 2 nM) in 50 mM Tris-HCl pH 7.8, 150 mM NaCl, 0.05% Tween 20; temperature not stated
Settings: protein: commercial; tags: His-tag; label: Cy5; hairpin

AGGUUGCAGCGUUCGACAGGAGGCUCACAACAG (structured_RNA, 2'-fluoro pyrimidines) [S76.T]
Kd: 10.1 ± 2.3 nM

From paper PMC10133315, “Overcoming adaptive resistance to anti-VEGF therapy by targeting CD5L”
